For one molecule, Kd results are on record in paper PMC6827878 (Cell, 2018).

This assay addresses Recombinant PP4R3β (His tagged SMEK2) (UniProt Q5MIZ7 1-849). Kind of assay: ITC. A general note: Isothermal titration calorimetry measures the heat released or taken up as one component is titrated into another.

Sequence of Recombinant PP4R3β (His tagged SMEK2) (Q5MIZ7 whole entry): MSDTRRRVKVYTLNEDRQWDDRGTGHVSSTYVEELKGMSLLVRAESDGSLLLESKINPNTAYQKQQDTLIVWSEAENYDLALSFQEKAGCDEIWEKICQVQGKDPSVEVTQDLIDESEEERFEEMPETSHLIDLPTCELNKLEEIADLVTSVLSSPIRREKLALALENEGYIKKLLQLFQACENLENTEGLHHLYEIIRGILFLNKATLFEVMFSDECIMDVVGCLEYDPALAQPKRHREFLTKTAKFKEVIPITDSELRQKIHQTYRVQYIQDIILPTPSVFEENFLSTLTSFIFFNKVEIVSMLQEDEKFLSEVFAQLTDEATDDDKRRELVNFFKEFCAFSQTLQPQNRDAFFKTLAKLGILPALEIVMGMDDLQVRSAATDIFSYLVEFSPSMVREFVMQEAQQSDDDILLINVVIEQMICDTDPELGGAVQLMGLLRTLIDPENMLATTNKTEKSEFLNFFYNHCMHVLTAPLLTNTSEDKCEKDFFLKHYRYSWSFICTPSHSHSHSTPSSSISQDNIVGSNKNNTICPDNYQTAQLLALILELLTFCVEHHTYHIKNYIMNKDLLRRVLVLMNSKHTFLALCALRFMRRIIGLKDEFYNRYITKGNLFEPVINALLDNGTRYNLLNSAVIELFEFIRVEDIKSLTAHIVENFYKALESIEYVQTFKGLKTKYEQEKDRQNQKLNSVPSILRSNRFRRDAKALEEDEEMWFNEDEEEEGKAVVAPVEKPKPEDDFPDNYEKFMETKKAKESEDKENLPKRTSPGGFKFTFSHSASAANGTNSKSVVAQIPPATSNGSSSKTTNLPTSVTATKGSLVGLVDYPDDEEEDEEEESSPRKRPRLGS

B1: GST-CT45A1 (natural protein, human, UniProt Q5HYN5 1-189, looked up)
chain: MTDKTEKVAVDPETVFKRPRECDSPSYQKRQRMALLARKQGAGDSLIAGSAMSKAKKLMTGHAIPPSQLDSQIDDFTGFSKDRMMQKPGSNAPVGGNVTSSFSGDDLECRETASSPKSQREINADIKRKLVKELRCVGQKYEKIFEMLEGVQGPTAVRKRFFESIIKEAARCMRRDFVKHLKKKLKRMI
Take B1: the Kd (in general, the equilibrium constant for the complex coming apart) was 370 ± 30 nM.
